This data set in a line: soluble on expression in E. coli; label from the status in PepcDB or PDB records.
Consider “QMLVNKARLANLNVSLEEKVMQRTVVLSEANHKLQQTVRQYEQSQQELRQTQQELTQAAKLALLGELSASINHEINQPLAALRTYTENSQRLLSMERYPMVADNLNKMLSLNETIAEVIARLKVFTRKTSHEPHNEVSILHDAVHNATSILSNKLIKQGVTLKVPTIDHEVRLAIHSVE”, for which the “soluble on expression in E. coli” value is on record as “not soluble”.
As for “QNSPQDYLAVHNDARAQVGVGPMSWDANLASRAQNYANSRAGDCNLIHSGAGENLAKGGGDFTGRAAVQLWVSERPSYNYATNQCVGGKKCRHYTQVVWRNSVRLGCGRARCNNGWWFISCNYDPVGNWIGQRPY”, the “soluble on expression in E. coli” value was “soluble”.
To “QNYSIERDVRLAPGEHFQIEGYDFYFSGLRDKDGPNYDGYIADFEITHDGKYINTLHAEKRFYRTAKSMMTEAAIDRGITRDLYIAMGERLDDNRSWAVRIYYKPFVR” belongs “not soluble”; to “QPAHSLWLDLTQGEEALLKGMKEMHRRNARLALKRVALSVEGEEAFAEFYRLFTETNRRARLLQHDEAYYRAVLKEMNQPLGEAFLALARKDGEALAAGLFVAFAGKVAYLYGGSTRKHPEAKAPMGMHLAAIRHGMARGYRVYDLWGIPKNPRGSHAEGIHRFKEGFGGQRVQFPA”, “not soluble”.
To “QQEVYGMMPRDETDSKTASASPWKSARLMVHTVATFNSIKER” belongs “soluble”; to “QRSYERDFPHHDRICIVKTHGTRQSQEGDKPEELDFSQVSGGVAPAIQEEIPGVELATRTTLYGTSKMILEDNKTYETKTLLAEPAFLDMFGVELIAGVRDSALRDNMTCLISESLARKMGGDVLGKRLRPAESKSDRAITIGGVFEDLPHNSSIQADMLLPITWMPAESLNNWIGNDRYIAYVRLRPGVSPESLDEALLEMQKRHQDMEVFRKAGVELHYSLTPFNRLRLEDPTLVNMLRIQQ”, “soluble”; to “QSEPELKLESVVIVSRHGVRAPTKATQLMQDVTPDAWPTWPVKLGWLTPRGGELIAYLGHYQRQRLVADGLLAKKGCPQSGQVAIIADVDERTRKTGEAFAAGLAPDCAITVHTQTDTSSPDPLFNPLKTGVCQLDNANVTDAILSRAGGSIADFTGHRQTAFRELERVLNFPQSNLCLKREKQDESCSLTQALPSELKVSADNVSLTGAVSLASMLTEIFLLQQAQGMPEPGWGRITDSHQWNTLLSLHNAQFYLLQRTPEVARSRATPLLDLIKTALTPHPPQKQAYGVTLPTSVLFIAGHDTNLANLGGALELNWTLPGQPDNTPPGGELVFERWRRLSDNSQWIQVSLVFQTLQQMRDKTPLSLNTPPGEVKLTLAGCEERNAQGMCSLAGFTQIVNEARIPACSL”, “soluble”.
“QSSAQRHADLNTLIGHTEPVANIAQDLYSSLSLADTEASASFVRGTNDNYVEYIQKAALLVTQTDGDIANIATQLPVYTGLVETARANNRQGHPVGVAYMSEASTLMQESILPAASQLYLNAAEQVSTAQRNLARPQ”: the “soluble on expression in E. coli” value is “not soluble”.
Consider “QTFSEEDHAILASYFPIVDGIAALIGEHCEIVLHSLEFLENSAIYIANGHNTDRKIGSPLTDKALKSLHQMQTDSVSKPYFTRLKGGILMKSITIAIRNSKQHVIGFICININLDVPTAQFLTSFIPRTQDDEN”, for which the “soluble on expression in E. coli” value is listed as “not soluble”.
With “QTKIYESYKLPDYLKDKIKNNNHAEMDENDLDNKIFYKPNVAAHSQFIDYKYNGNHSVEIKFETDAIEVYEIRPVSIATITHVTIPNDCASNNSNSNECVLIIHVWNNSKFVGSNFSCSIACTNKETDQLASHINPIAPVRAFIGPNKNYAFYFIIKFLINKEITTLCKAIVKDSNGKECSIEEFELQSKESVHIVESEVDETTDQVVVEHHTQSPDIKNPDEYVCKCTINLLCYV”, the “soluble on expression in E. coli” value is on record as “soluble”.
For “QVQLVASGGGSVQAGGSLRLSCAASGYTFSSYPMGWYRQAPGKECELSARIFSDGSANYADSVKGRFTISRDNAANTAYLQMDSLKPEDTAVYYCAAGPGSGKLVVAGRTCYGPNYWGQGTQVTVSS” the value was “soluble”.
For “QYAIERHFYSQDFSYISSKFNAIENELKSSLEDVFKQANNSTLYMWVFEGKLNVYQNSSLTIPQNRAYSISSPQVLNHERAIEWSEDSLNIRAFAFQAGEYQVVLGMSINHHILFLDKLD” the value was “not soluble”.
As to “RAKGRFFYDKTSSQQPAIIVLSGSDGRIEKAQNIAQLLASHGFTTLALAYFGLEGLASHLEKIPLEIIQEAIDYLKKSPYADSIRLGLYGRSKGAEFALLAASHYADFKCLVLNSPSYLCLEGLKQWRNSKTSSWTYQGQELPYHPFLWKDFFQRLILKKDLKNINHQAVIPVEKINGSLLLLVSKKDEVWDAYGSAITIVNRLQQKRFKYPYQVESYENCGHMMTVAYQPNHRYKKVALEKIMADTNDSWQKTL”, the “soluble on expression in E. coli” value is given as “not soluble”.
Turning to “RCFRLEQTQKDARVVSVHAAMSGRSTIGEQQGHSISWRRRLSRANTWPSAAKAQAYITNVATPALTQVAEELCRKGINARLVTTKTQAVEGLDLIVEMGSEQNFRYQLFPVCNPVPQFTRKANASEKETYYRLEVCDLTGSLGYDIYGYTQEQLIDNVLDLYERHLEFLHMHSDLPGSSDLSDGATPPLFS”, the “soluble on expression in E. coli” value is “not soluble”.
For “RDPIGYEKMFSKLRGGIVHARETAKRIAASPIVEQEGELCFTLYNAVGDSVLTSTGIIIHVGTMGSAIKYMVENNWEDNPGINDKDIFTNNDCAIGNVHPCDIMTLVPIFHDEKLIGWVGGVTHVIDTGSVTPGSMSTGQVQRFGDGYMITCRKTGANDESFKDWLHESQRSVRTPKYWILDERTRIAGCHMIRDLVMEVIKEDGIDSYMRFIDEVIEEGRRGLISRIKSMTIPGKYRKVAFVDVPYAHKDIGVCSEFAKLDTIMHSPVEITINKDATWKLDFDGASRWGWHSFNCNQVSFTSGIWVMMTQTLIPTSRINDGAYFATQFRLKKGTWMNPDDRRTGHAYAWHFLVSGWSALWRGLSQAYYSRGYLEEVNSGNANTSNWLQGGGINQDGEIHAVNSFETSSCGTGACAIKDGLNHAAAIWNPEGDMGDVEIWEMAEPLLYLGRNVKANTGGYGKYRGGNGFETLRMVWGAHDWTMFFMGNGYMNSDWGMMGGYPAASGYRFEAHNTDLKNRIKNNASLPLGGDFNPTDRDYEKHISHASQVKRDKQCITTENCFDNYDLYLNYIKGGPGFGDPIERDLNAILEDLNSKQL” the value was “not soluble”; for “REGITKNPTKRIIKDVETVDYPEKLIVPYIDTVHDRIVLELFRGCTRGCRFCQAGMIYRPIREKSVKRLKEILDKLVKNTGYDEISLSSLSTSDYSKLSELTDYLVDEYASNNIGISLPSLRLDNFSMEIADKIQQVRKSGLTFAPEAGTQRLRDVINKGVTEEDLENATERAFEMGWNSVKLYFMIGLPTETYEDLDGIAKLAYKV”, “not soluble”.
As for “RIDNRNDEILRITGNPYHPLSHQQHIPFETPVKDAYLSLAGEAGLDGRSTACARGNGMLEIRNSPYRITQPLKRVGKRGEGKWIPISYEQLIEEVVEGGDLFGEGHVDGLRDIRDLTTPVDPENPEYGPKANQLLMTNAGNEGRDDIFKRFAFNSYGTRNFGHHGSYCGYAFRAGSGAFMNDLDKNAHLKPDFDNAEYIIFIGMSPAQAGNPFKRQARQLANARTEGSLE”, the “soluble on expression in E. coli” value is recorded as “not soluble”.
For “RKIGTAFVMGDVEEVMSRSSQLVINPYHGHKEADRDIKNPENWESVMEFAQIDGVFVLDENGIIIACGRYIEASAKDLVSKIKRGLGGRHIACASITKETKAIAVVVSESGGDITVYKD”, the “soluble on expression in E. coli” value was “soluble”.
Consider “RKWAEDNEVQNCMACGKGFSVTVRRHHCRQCGNIFCAECSAKNALTPSSKKPVRVCDACFNDLQG”, for which the “soluble on expression in E. coli” value was “soluble”.
In the case of “RLLLNGDGTPVGGAWNFDAENRKALPKGVAAPYPMRFSADAITRDVLTLVAERFASHYGSLDTFDYPVTQADAQALWEYFLDFGLAGFGDYQDAMATDEPFLFHARISAALNIGLLDLRQICSDVESAYWSGRVALNAAEGFIRQLIGWREYVRGVYWLKM”, the “soluble on expression in E. coli” value is “not soluble”.
To “RLVLAGNGMAGIRCIEEVLKLNRHMFEIVIFGSEPHPNYNRILLSSVLQGEASLDDITLNSKDWYDKHGITLYTGETVIQIDTDQQQVITDRKRTLSYDKLIVATGSSPHILPIPGADKKGVYGFRTIEDCQALMNMAQHFQKAAVIGAGLLGLEAAVGLQHLGMDVSVIHHSAGIMQKQLDQTAARLLQTELEQKGLTFLLEKDTVSISGATKADRIHFKDGSSLKADLIVMAAGVKPNIELAVSAGIKVNRGIIVNDFMQTSEPNIYAVGECAEHNGTVYGLVAPLYEQGKALASHICGVPCEEYQGSAPSAALKIAGIDVWSAGKIQEDERTTSIKIYDEQAGVYKKALFVDDKLRVILFGDTRDKQRLLDSLLKQRDISIAKKQIIEPETSGPLFESMPSSETICQCNTVTKGAIEDAVHTNSLTTVEEVKHCTKATGSCGGCKPLVEDLLRYMTNSEYTKPASTPSFCSCTDFTEDDIIAELQRRPFTNPAEVMNQLDWKTKNGCSTCVPAIQYYLEMLYPGFVQPEPATEETCILIPQMYGGRTNAEQLRTIANIIEAYSIPDVSITHGQRLKLSGIKPADLPNMKKDLKMPVYTNEHRHALQSIKACTCGQNRSIQQLAAQIERQLEMLPLPAPISISLSCETDCTEAALQDVGAIRTQAGWDIHIGGVRGTHARSGALFCVTENEDSTAGMIKGLIQYYRETDHYLEGVHQWIDRLGIVHIREVLFEEDLRAQLLESLQTDLSLIQNPTVETGAYKK” belongs “not soluble”; to “RMSSQIRQNYSTDVEAAVNSLVNLYLQASYTYLSLGFYFDRDDVALEGVSHFFRELAEEKREGYERLLKMQNQRGGRALFQDIKKPAEDEWGKTPDAMKAAMALEKKLNQALLDLHALGSARTDPHLCDFLETHFLDEEVKLIKKMGDHLTNLHRLGGPEAGLGEYLSSKGSLSSTTKSLLSPATSEGPLAK”, “soluble”; to “RPLQGEATNLTDNTIFRIRQLKGTWNLLIIDSGKCEEYCQEKLYTLRQVRLAQHVDKDKVQRVWLINDDIRPDQETIDKFKGTRLVLANGKDLLKEFPAENKREDHIYVVDPMGNLMMRYPRNADPRKMVGDLKRLLKLSHLEH”, “not soluble”.
To “RQDARERERLAVLAASRTALAPLDGPPQVLWTSDREEVLWASARTPDGLLVVPGTQGERVVRALDPATGDVVWERELLPPRDTAPAPNEDVAGASCVGHGAAGDLLACLASDAMTVFDERTTDIRYVAPTVVRLVLLDPQDGTVVADLSDAVAGTGTAPAYVALGDLVVVSSVVDDATRVVAVAPDGSVAWRTEVPPSTRPAPGLPGLRRADVLALGDHLVVATAEEMRLLDATGATVRTVPLADDESLGGAEGTTAFARTGLDRVTLMQVGSEVVARGEGTKVVRADHVGELPGGRVRADVDDGSDPRLVLTSDAEGLHGWDAEGVRRWSADVQVTRSAMVLAGRVHATTRADALVTFDARTGAELWRRDGLVLDQAPLADGRVLLVRERGADGAALDLVALDVADGEVAWRTPWPEGVDQLQAVFGVIVGLSYDVEGEDWSVTALG” belongs “not soluble”; to “RQPEVRGGDTLNVFLAYVPEDAKAMMTTPFEAYLVNDSNYYLYYTYLSAEGKAWNNRSHGLVEPNTKLLLEEFTKDVLNEMERVAVQLIAFKDGKPAAIKPAVSVELRIDTVKFYKLHTFSASDFFEEPALIYDIVKDDVPAKQVYV”, “soluble”.

For the origin of these results see the DeepSol protein solubility set.
